According to US20170051047A1 (CANGENE, published 2017):
Substitutions are numbered along the chain they refer to.

B1: CDR-huCAN20G2 (antibody, V domains shown)
VH: QVQLVQSGSELKKPGASVKVSCKASGYTFTNQGMNWVRQAPGQGLEWMGWINTNTGEPTYAQGFTGRFVFSLDTSVSTAYLQISSLKAEDTAVYYCYVNYDYYTMDFWGQGTTVTVSS
VL: DIQMTQSPSSLSASVGDRVTITCRASSSVISTYLNWYQQKPGKAPKLLIYSTSSLQSGVPSRFSGSGSGTDFTLTISSLQPEDFATYYCLQYHRSPRTFGGGTKVEIK
B2: AVA-huCAN20G2 (antibody, V domains shown)
VH: QIQLVQSGPELKKPGETVKISCKASGYTFTNQGMNWVKQAPGKGLKWMGWINTNTGEPTYTADFTGRFAFSLETSVSTAYLQINSLKAEDTATYFCYVNYDYYTMDFWGQGTLVTVSS
VL: DIQMTQSPSSLSASVGDRVTITCSASSSVISTYLNWYQQKPGKAPKVLIYSTSSLHSGVPSRFSGSGSGTDFTLTISSLQPEDFATYYCLQYHRSPRTFGQGTKVEIKR
B3: HE-huCAN20G2 (antibody, V domains shown)
VH: B2 VH
VL: DVQLTQSPSIMSASLGDRVTMTCTASSSVISTYLHWYQQKPGSSPKLWIYSTSTLASGVPPRFSGSGSGTDYSLTISSMEPEDAATYYCLQYHRSPRTFGGGTKVEIKR
B4: CAN20G1 (antibody, V domains shown)
VH: B2 VH with Q32D, T61V, A62E, D63E, T65K, V76A, S85N, A88N, F107C, L113S
VL: QVVLTQSPAIMSASLGERVTMTCTASSSVISSYLHWYQQKPGSSPKLWIYSTSTLASGVPARFSGSGSGTSYSLTISSMEAEDAATYYCLQYHRSPRTFGGGTKLEIK
B5: CAN20G8 (antibody, V domains shown)
VH: QIQLVQSGPELKKPGETVKISCKASGYAFTNDGMNWVKQAPGKGLKWMGWINTNTGEPTYAEEFKGRFAFSLETSASTAYLQINNLKNEDTATYFCYVNYDYYTMDCWGQGTSVTVSS
VL: B4 VL with T54I
B6: CAN20G5 (antibody, V domains shown)
VH: B5 VH with A28S, D32S, Q39E, K65M, M105I, C107Y
VL: B4 VL with V2I, I30Y, S32T, T54N, L90H
B7: CAN20G2 (antibody, V domains shown)
VH: B5 VH with L11V, A28T, D32Q, A61T, C107F
VL: B4 VL with E17D, S32T, A61P

The binders below were run against T1, Clostridium difficile toxin A (whole toxin A) (Clostridium difficile, UniProt P16154 1-2710) (assay: not given).
B1 showed a Kd of 0.8 nM, a koff of 5.41e-05 s⁻¹ and a kon of 67600 M⁻¹ s⁻¹.
With B2 the Kd was 1.33 nM, the koff was 9.02e-05 s⁻¹ and the kon was 54500 M⁻¹ s⁻¹.
For B3, the Kd was 0.332 nM, the koff was 3.14e-05 s⁻¹ and the kon was 93900 M⁻¹ s⁻¹.

Molecular target: T1, Clostridium difficile toxin A (whole …)
Test: not given
Remark: another data set of the same source
For B4, the Kd was 1.79 nM, the koff was 0.000219 s⁻¹ and the kon was 123000 M⁻¹ s⁻¹.
B5 was tested, and the Kd was 1.65 nM, the koff was 0.000216 s⁻¹ and the kon was 131000 M⁻¹ s⁻¹.
B6 was tested, and the Kd was 2.01 nM, the koff was 0.000168 s⁻¹ and the kon was 83800 M⁻¹ s⁻¹.

Each binder was assayed against T1, Clostridium difficile toxin A (whole …) (assay: cell-based or functional assay).
With B4 the “EC50 Value (µg/mL), in vitro toxin A neutralization” value (from here on “EC50 Value (µg/mL)”) was 0.17 µg/mL.
With B5 the “EC50 Value (µg/mL)” value was 0.137 µg/mL.
In the case of B6, the “EC50 Value (µg/mL)” value is reported as 0.13 µg/mL.
In the case of B7, the “EC50 Value (µg/mL)” value is reported as 0.0101 µg/mL.

The binders below were run against T2, Clostridium difficile toxin B (whole) (Clostridium difficile, UniProt P18177 2-2366) (assay: Western blot).
T2 construct: mature
B4: no binding (tested: 1 µg/ml).
B5: no binding (tested: 1 µg/ml).
B6: no binding (tested: 1 µg/ml).
